Laboratory results reported in patent US20230158141A1 (YAFEI SHANGHAI BIOLOG MEDICINE SCIENCE AND TECHNOLOGY, published 2023).
Where a chain is given by its changes, count along the chain named. Names may count otherwise.

B1: anti-PD-1 antibody 2 light chain S28C (antibody, human IgG4 S228P, kappa, V domains shown)
VH: QVQLVESGGGVVQPGRSLRLDCKASGITFSNSGMHWVRQAPGKGLEWVAVIWYDGSKRYYADSVKGRFTISRDNSKNTLFLQMNSLRAEDTAVYYCATNDDYWGQGTLVTVSS
VL: EIVLTQSPATLSLSPGERATLSCRASQCVSSYLAWYQQKPGQAPRLLIYDASNRATGIPARFSGSGSGTDFTLTISSLEPEDFAVYYCQQSSNWPRTFGQGTKVEIKR
B2: anti-PD-1 antibody 2 light chain S30C (antibody, human IgG4 S228P, kappa, V domains shown)
VH: B1 VH
VL: B1 VL with C28S, S30C
B3: anti-PD-1 antibody 2 light chain T97C (antibody, human IgG4 S228P, kappa, V domains shown)
VH: B1 VH
VL: B1 VL with C28S, T97C
B4: anti-PD-1 antibody 2 light chain T56C (antibody, human IgG4 S228P, kappa, V domains shown)
VH: B1 VH
VL: B1 VL with C28S, T56C
B5: anti-PD-1 antibody 2 light chain S92C (antibody, human IgG4 S228P, kappa, V domains shown)
VH: B1 VH
VL: B1 VL with C28S, S92C
B6: anti-PD-1 antibody 2 light chain S91C (antibody, human IgG4 S228P, kappa, V domains shown)
VH: B1 VH
VL: B1 VL with C28S, S91C
B7: anti-PD-1 antibody 2 light chain S31C (antibody, human IgG4 S228P, kappa, V domains shown)
VH: B1 VH
VL: B1 VL with C28S, S31C
B8: anti-PD-1 antibody 2 light chain S52C (antibody, human IgG4 S228P, kappa, V domains shown)
VH: B1 VH
VL: B1 VL with C28S, S52C
B9: anti-PD-1 antibody 2 HC Ala24Cys (antibody, human IgG4 S228P, kappa, V domains shown)
VH: B1 VH with A24C
VL: B1 VL with C28S
modifications: arm on Cys24 as named in each row
B10: anti-PD-1 antibody 2 HC Ser17Cys (antibody, human IgG4 S228P, kappa, V domains shown)
VH: B1 VH with S17C
VL: B1 VL with C28S
modifications: arm on Cys17 as named in each row
B11: anti-PD-1 antibody 2 HC Ser71Cys (antibody, human IgG4 S228P, kappa, V domains shown)
VH: B1 VH with S71C
VL: B1 VL with C28S
modifications: arm on Cys71 as named in each row
B12: anti-PD-1 antibody 2 HC Thr91Cys (antibody, human IgG4 S228P, kappa, V domains shown)
VH: B1 VH with T91C
VL: B1 VL with C28S
modifications: arm on Cys91 as named in each row
B13: anti-PD-1 antibody 2 HC Ser25Cys (antibody, human IgG4 S228P, kappa, V domains shown)
VH: B1 VH with S25C
VL: B1 VL with C28S
modifications: arm on Cys25 as named in each row
B14: anti-PD-1 antibody 2 HC Gly9Cys (antibody, human IgG4 S228P, kappa, V domains shown)
VH: B1 VH with G9C
VL: B1 VL with C28S
modifications: arm on Cys9 as named in each row
B15: anti-PD-1 antibody 2 HC Gly42Cys (antibody, human IgG4 S228P, kappa, V domains shown)
VH: B1 VH with G42C
VL: B1 VL with C28S
modifications: arm on Cys42 as named in each row
B16: anti-PD-1 antibody 2 HC Ser30Cys (antibody, human IgG4 S228P, kappa, V domains shown)
VH: B1 VH with S30C
VL: B1 VL with C28S
modifications: arm on Cys30 as named in each row
B17: anti-PD-1 antibody 2 HC Gly15Cys (antibody, human IgG4 S228P, kappa, V domains shown)
VH: B1 VH with G15C
VL: B1 VL with C28S
modifications: arm on Cys15 as named in each row
B18: anti-PD-1 antibody 2 HC Ser75Cys (antibody, human IgG4 S228P, kappa, V domains shown)
VH: B1 VH with S75C
VL: B1 VL with C28S
modifications: arm on Cys75 as named in each row
B19: anti-PD-1 antibody 2 HC Thr28Cys (antibody, human IgG4 S228P, kappa, V domains shown)
VH: B1 VH with T28C
VL: B1 VL with C28S
modifications: arm on Cys28 as named in each row
B20: anti-PD-1 antibody 2 HC Thr98Cys (antibody, human IgG4 S228P, kappa, V domains shown)
VH: B1 VH with T98C
VL: B1 VL with C28S
modifications: arm on Cys98 as named in each row
B21: anti-PD-1 antibody 2 HC Thr78Cys (antibody, human IgG4 S228P, kappa, V domains shown)
VH: B1 VH with T78C
VL: B1 VL with C28S
modifications: arm on Cys78 as named in each row
B22: anti-PD-1 antibody 2 HC Ser85Cys (antibody, human IgG4 S228P, kappa, V domains shown)
VH: B1 VH with S85C
VL: B1 VL with C28S
modifications: arm on Cys85 as named in each row
B23: anti-PD-1 antibody 2 HC Ala40Cys (antibody, human IgG4 S228P, kappa, V domains shown)
VH: B1 VH with A40C
VL: B1 VL with C28S
modifications: arm on Cys40 as named in each row
B24: anti-PD-1 antibody 2 HC Gly8Cys (antibody, human IgG4 S228P, kappa, V domains shown)
VH: B1 VH with G8C
VL: B1 VL with C28S
modifications: arm on Cys8 as named in each row
B25: anti-PD-1 antibody 2 HC Gly26Cys (antibody, human IgG4 S228P, kappa, V domains shown)
VH: B1 VH with G26C
VL: B1 VL with C28S
modifications: arm on Cys26 as named in each row
B26: anti-PD-1 antibody 2 HC Ala88Cys (antibody, human IgG4 S228P, kappa, V domains shown)
VH: B1 VH with A88C
VL: B1 VL with C28S
modifications: arm on Cys88 as named in each row
B27: anti-PD-1 antibody 2 HC Gly44Cys (antibody, human IgG4 S228P, kappa, V domains shown)
VH: B1 VH with G44C
VL: B1 VL with C28S
modifications: arm on Cys44 as named in each row
B28: anti-PD-1 antibody 2 HC Ala92Cys (antibody, human IgG4 S228P, kappa, V domains shown)
VH: B1 VH with A92C
VL: B1 VL with C28S
modifications: arm on Cys92 as named in each row
B29: anti-PD-1 antibody 1 heavy chain G50C (antibody, human IgG4 S228P, kappa, V domains shown)
VH: QVQLVQSGVEVKKPGASVKVSCKASGYTFTNYYMYWVRQAPGQGLEWMGCINPSNGGTNFNEKFKNRVTLTTDSSTTTAYMELKSLQFDDTAVYYCARRDYRFDMGFDYWGQGTTVTVSS
VL: EIVLTQSPATLSLSPGERATLSCRASKGVSTSGYSYLHWYQQKPGQAPRLLIYLASYLESGVPARFSGSGSGTDFTLTISSLEPEDFAVYYCQHSRDLPLTFGGGTKVEIKR
B30: anti-PD-1 antibody 1 heavy chain T58C (antibody, human IgG4 S228P, kappa, V domains shown)
VH: B29 VH with C50G, T58C
VL: B29 VL
B31: anti-PD-1 antibody 1 heavy chain G57C (antibody, human IgG4 S228P, kappa, V domains shown)
VH: B29 VH with C50G, G57C
VL: B29 VL
B32: anti-PD-1 antibody 1 heavy chain G106C (antibody, human IgG4 S228P, kappa, V domains shown)
VH: B29 VH with C50G, G106C
VL: B29 VL
B33: anti-PD-1 antibody 1 heavy chain S54C (antibody, human IgG4 S228P, kappa, V domains shown)
VH: B29 VH with C50G, S54C
VL: B29 VL
B34: anti-PD-1 antibody 1 heavy chain G56C (antibody, human IgG4 S228P, kappa, V domains shown)
VH: B29 VH with C50G, G56C
VL: B29 VL
B35: anti-PD-1 antibody 1 heavy chain T30C (antibody, human IgG4 S228P, kappa, V domains shown)
VH: B29 VH with T30C, C50G
VL: B29 VL

Target: T1, PD-1 (UniProt Q15116 25-167, limits assumed)
Experiment: ELISA, OD mutant/OD WT; A=90-110%
T1 sequence (Q15116 25-167 limits assumed): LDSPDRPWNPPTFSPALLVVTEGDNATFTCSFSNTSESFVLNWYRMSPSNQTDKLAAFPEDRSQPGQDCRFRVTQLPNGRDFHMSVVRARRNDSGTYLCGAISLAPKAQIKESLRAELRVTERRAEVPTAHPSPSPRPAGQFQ

Row | Binder | binding activity (OD after mutation/OD wild type) [%]
1 | B1 | 90 to 110
2 | B2 | 90 to 110
3 | B3 | 90 to 110
4 | B4 | 90 to 110
5 | B5 | 90 to 110
6 | B6 | 90 to 110
7 | B7 | 90 to 110
8 | B8 | 90 to 110

Target: T2, PD-1 (UniProt Q15116 25-167, limits assumed)
Experiment: ELISA; Cys mutant, no arm
T2 sequence (Q15116 25-167 limits assumed): as above

Row | Binder | binding activity, % of wild type [%]
9 | B9 | 99.6
10 | B10 | 85
11 | B11 | 81.4
12 | B12 | 86
13 | B13 | 99.8
14 | B14 | 97.8
15 | B15 | 83.4
16 | B16 | 89.7
17 | B17 | 85.6
18 | B18 | 96.3
19 | B19 | 86.4
20 | B20 | 89.6
21 | B21 | 92.2
22 | B22 | 98.8
23 | B23 | 85.3
24 | B24 | 93.2
25 | B25 | 95.4
26 | B26 | 84.3
27 | B27 | 99.3
28 | B28 | 85

Target: T1, PD-1
Experiment: ELISA, OD mutant/OD WT; A=90-110%
Remark: another data set of the same source

Row | Binder | binding activity (OD after mutation/OD wild type) [%]
29 | B29 | 90 to 110
30 | B30 | 90 to 110
31 | B31 | 90 to 110
32 | B32 | 90 to 110
33 | B33 | 90 to 110
34 | B34 | 90 to 110
35 | B35 | 90 to 110

Target: T2, PD-1
Experiment: ELISA; S9 on the Cys

Row | Binder | binding activity, % of wild type [%]
36 | B9 | 45.6
37 | B10 | 75.3
38 | B11 | 56.9
39 | B12 | 48.9
40 | B13 | 48.7
41 | B14 | 87.4
42 | B15 | 63.6
43 | B16 | 31.8
44 | B17 | 32.5
45 | B18 | 38.7
46 | B19 | 29.9
47 | B20 | 59.9
48 | B21 | 86.3
49 | B22 | 69.4
50 | B23 | 50.3
51 | B24 | 78.3
52 | B25 | 31.8
53 | B26 | 46.8
54 | B27 | 78.3
55 | B28 | 64.6

Target: T2, PD-1
Experiment: ELISA; S13 on the Cys

Row | Binder | binding activity, % of wild type [%]
56 | B9 | 32.3
57 | B10 | 42.4
58 | B11 | 22.9
59 | B12 | 21.7
60 | B13 | 27
61 | B14 | 24.6
62 | B15 | 29.8
63 | B16 | 15.3
64 | B17 | 21.5
65 | B18 | 14.6
66 | B19 | 15
67 | B20 | 32.1
68 | B21 | 42.4
69 | B22 | 32.3
70 | B23 | 37.2
71 | B24 | 34.2
72 | B25 | 11.7
73 | B26 | 27
74 | B27 | 30.8
75 | B28 | 15
